Test results as given in patent publication US20220369998A1, “METHODS FOR DIAGNOSING AND TREATING NEURAL DISEASES” (B. G. NEGEV TECHNOLOGIES AND APPLICATIONS LTD., AT …, priority 2019, published 2022).
Entries after “also recorded” stand apart in the source; their conditions may differ.

Tested on: young rats (10-12 weeks of age)
Assay: Long-term intra-cerebroventricular albumin perfusion in rats, telemetric ECoG recording and PSWE detection
Type: in vivo, rat
Protocol: All animal experiments were conducted following an ethical committee approval of the institution in which they were performed, Ben Gurion University of the Negev, Beer-Sheva, Israel or The University of California, Berkeley, Berkeley, Calif., US. Electrodes and wireless transmitters were implanted in the following animal groups: 1) Twelve weeks old (n=5) mice; 2) 18-22 months old (n=12) mice; 3) Nine to 11-weeks-old Wistar male rats implanted with 28 days long intra-cerebroventricular (ICV) perfusion osmotic pumps (N=8, 0.8 mM albumin infusion, N=5 ACSF infusion); 4) Sprague-Dawley rats (n=5, weighing 300 gr) 3 weeks after status epilepticus (SE, see below) and naïve rats (N=3). Groups 1 and 2 electrode coordinates: 0.5 mm rostral or 3.5 mm caudal and 1 mm lateral to bregma, on each side (4 screws, 2 in each hemisphere); Group 3 coordinates: 4.8 mm posterior or 2.7 mm anterior, and 2.2 mm lateral to bregma, on each side (4 screws, 2 in each hemisphere); Group 4 coordinates: 3 mm caudal and 2.5 mm lateral to bregma, on each side (2 screws, 1 in each hemisphere)). Continuous ECoG (sampling rate of 500 Hz) was recorded wirelessly from freely moving animals in their home cage for the described duration of experiments.
Signal processing was performed offline. Pre-processing included high pass filter (1 Hz), low pass filter (100 Hz) and notch (band-stop) filter (45-55 Hz). EEG human recordings were analyzed as reference to average. Human data were preprocessed by EEGLAB. Animal data were preprocessed using home-developed MATLAB (MathWorks Ltd., MA USA) scripts. To detect PSWE, ECoG or EEG signals were buffered into 2 sec long epochs with 1 sec overlap. Spectral analysis by Fast Fourier Transform (FFT) was applied and the median power frequency (MPF) was extracted for each epoch. PSWE was defined if MPF was <6 Hz for >5 consecutive seconds (see results). Analysis was performed separately for each recorded channel. Power spectrum as in FIG. 1A was calculated for the average channel and for animals ECoG data (e.g., FIG. 2A) over a single channel. FFT was also applied for the entire recording period buffered into 8 seconds epoch with 4 seconds overlap to analyze relative power across the frequency spectrum of 1-20 Hz. Processing was performed by self-developed MATLAB scripts.
The inventors next recorded ECoG from young rats (10-12 weeks of age) exposed to ICV albumin (N=8), compared to animals exposed to ACSF (controls, N=5).

[1] = ECoG spectral analysis, long-term albumin N=8 vs ACSF N=5

B1: albumin (protein, UniProt P02770 25-608, looked up)
Albumin: EAHKSEIAHRFKDLGEQHFKGLVLIAFSQYLQKCPYEEHIKLVQEVTDFAKTCVADENAENCDKSIHTLFGDKLCAIPKLRDNYGELADCCAKQEPERNECFLQHKDDNPNLPPFQRPEAEAMCTSFQENPTSFLGHYLHEVARRHPYFYAPELLYYAEKYNEVLTQCCTESDKAACLTPKLDAVKEKALVAAVRQRMKCSSMQRFGERAFKAWAVARMSQRFPNAEFAEITKLATDVTKINKECCHGDLLECADDRAELAKYMCENQATISSKLQACCDKPVLQKSQCLAEIEHDNIPADLPSIAADFVEDKEVCKNYAEAKDVFLGTFLYEYSRRHPDYSVSLLLRLAKKYEATLEKCCAEGDPPACYGTVLAEFQPLVEEPKNLVKTNCELYEKLGEYGFQNAVLVRYTQKAPQVSTPTLVEAARNLGRVGTKCCTLPEAQRLPCVEDYLSAILNRLCVLHEKTPVSEKVTKCCSGSLVERRPCFSALTVDETYVPKEFKAETFTFHSDICTLPDKEKQIKKQTALAELVKHKPKATEDQLKTVMGDFAQFVDKCCKAADKDNCFATEGPNLVARSKEALA
notes: serum protein infused ICV (0.8 mM, 28 days) in rats as a model of chronic BBB disruption
- relative power in alpha (8-12 Hz) band compared with ACSF-injected animals [1]: significantly lower
- relative power in beta (12-20 Hz) band compared with ACSF-injected animals [1]: significantly lower
- relative power in the delta (1-5 Hz) band compared with ACSF-injected animals [1]: significantly greater
- occurrence per minute of PSWEs, albumin-injected hemisphere compared with the non-injected hemisphere (ICV osmotic pump, right lateral ventricle, four weeks after onset of perfusion, ipsilateral vs contralateral, N=8): significantly higher; also recorded: more common
- PSWE duration compared with the ACSF treated group (albumin treated group vs ACSF): significantly longer
- PSWE median frequency compared with the ACSF treated group (albumin treated group vs ACSF): slower; also recorded: significantly lower
- occurrence per minute of PSWEs, albumin-injected hemisphere compared with ACSF-injected controls (four weeks after onset of perfusion, albumin N=8 vs ACSF N=5): significantly higher; also recorded: more common
- higher occurrence per minute of PSWEs detected at one week (one week after onset of perfusion): not at one week
